According to patent US10729768B2, “Combination of anti-CD20 antibody and PI3 kinase selective inhibitor” (TG Therapeutics, Inc., priority 2012, dated 2020):

What was measured:
Raji Cells = experiment: in situ caspase-3 kit, caspase 3 activity and combination index (Example 5); type: cell-based; details: 24 hrs; for Caspase 3 Activity: Raji cells
Experimental: (§1) In order to determine the effect of S-isomer of a compound of formula A, UBX, and combinations thereof on apoptosis in cancer cells, an in situ caspase-3 kit (Millipore) was used. CELLS were plated in a 6 well plate at a concentration of 0.5×10^6 cells/ml, treated with either S-isomer of a compound of formula A (200-5000 nM), UBX (10,000 ng/ml to 10 ng/ml), or UBX with S-isomer of a compound of formula A (as indicated), and incubated for 24 hrs at 37° C. and 5% CO2. The cells were then transferred to microfuge tubes to receive 10 μl of freshly prepared FLICA™ reagent and incubated for 1 hour at 37° C. and 5% CO2 away from light. After extensive washes with wash buffer, test samples were adjusted to equalize the number of cells in PBS. 100 μl of each cell suspension was transferred to black 96-well plates in duplicates, and the fluorescence was read at an excitation wavelength of 490 nm and an emission wavelength of 520 nm in a plate reader. The fluorescence intensity for a DMSO control was subtracted from that of test compounds. Data was expressed as caspase-3 activity a combination index (C.I.) calculated.

LY1 Cells = experiment: as above; type: cell-based; details: for Caspase 3 Activity: LY1 cells, 24 hrs
Experimental: as §1

CD20-positive cells = experiment: B cell depletion from human whole blood (HWB), flow cytometry, CD20; type: cell-based; details: 24 hrs
Experimental: (§2) A flow cytometry assay was used to compare the ability of S-isomer of compound of formula A, Ublituximab (Ubx), and combinations thereof to deplete B cells from human whole blood (HWB). In this assay, 50 μl of HWB sample was treated with either S-isomer of a compound of formula A (1000 nM), UBX (100 μg/ml to 0.1 μg/ml), or UBX in combination with S-isomer of a compound of formula A at 1000 nM and incubated for 24 hrs at 37° C. and 5% CO2. 20 μl of treated sample was taken in a 1.5 ml centrifuge tube and labeled with CD45 FITC and CD19 PE or CD20 FITC antibody and incubated in the dark for 1 hour at RT. 1 ml of red blood cell (RBC) lysing solution was added, and tubes were centrifuged at 3000 rpm for 10 minutes. […] The tubes were vortexed, and 5000 events were acquired on a Guava® easyCyte™ flow cytometer and analyzed with Incyte Software.
(§3) Gated population of CD45-positive cells were further analyzed for CD19. The number of cells that were positive for CD45 and CD19 was calculated, and the data was expressed as the percentage of CD19 positive cells in the population. CD20-positive populations were gated with fluorescence positive minus unlabeled cells, and the data was expressed as the percentage of CD20-positive cells in the population. The loss of CD19/CD20 population from control was calculated and expressed as % depletion with respect to control.

[1] = tested on: Daudi, RPMI-8226, Raji, and U266B1 cells; experiment: in situ caspase-3 kit, apoptosis (Example 3), cell lines tested; type: cell-based; details: 24 hrs
Experimental: In order to determine the effect of S-isomer of a compound of formula A, UBX, and combinations thereof on apoptosis in cancer cells, an in situ caspase-3 kit (Millipore) was used. Cells were plated in a 6 well plate at a concentration of 0.5×10^6 cells/ml, treated with either S-isomer of a compound of formula A (1000 nM), UBX (100 μg/ml to 0.1 μg/ml), or UBX with S-isomer of a compound of formula A at 1000 nM, and incubated for 24 hrs at 37° C. and 5% CO2. The cells were then transferred to microfuge tubes to receive 10 μl of freshly prepared FLICA™ reagent and incubated for 1 hour at 37° C. and 5% CO2 away from light. After extensive washes with wash buffer, test samples were adjusted to equalize the number of cells in PBS. 100 μl of each cell suspension was transferred to black 96-well plates in duplicates, and the fluorescence was read at an excitation wavelength of 490 nm and an emission wavelength of 520 nm in a plate reader. The fluorescence intensity for a DMSO control was subtracted from that of test compounds. Data was expressed as a percent of the maximum response (100%) and plotted accordingly.

CD19-positive cells = experiment: B cell depletion from human whole blood (HWB), flow cytometry, CD19; type: cell-based; details: 24 hrs
Experimental: as §2, §3

CD19+ B-cell = experiment: LPS-induced proliferation in HWB, flow cytometry, CD19; type: cell-based, human; details: 72 hrs
Experimental: Flow cytometry was used to study the effect of S-isomer of a compound of formula A, Ubx, and combinations thereof on LPS-induced proliferation of CD19 and CD20 cells in HWB. In these experiments, 250 μl of diluted (1:3.5 with RPMI-HG Media) HWB sample was treated with either S-isomer of a compound of formula A (10 μM to 0.1 μM), UBX (100 μg/ml to 0.1 μg/ml) or UBX with S-isomer of a compound of formula A at 1000 nM for 15 minutes followed by 20 μg/ml LPS induction and incubated for 72 hrs at 37° C. and 5% CO2. 20 μl of treated sample was taken in a 1.5 ml centrifuge tube and labeled with CD20 FITC and CD19 PE antibody and incubated in the dark for 1 hour at RT. 1 ml of RBC lysing solution was added and tubes were centrifuged at 3000 rpm for 10 minutes. Supernatant was aspirated, and 250 μl of PBS was added to the pellet. Tubes were vortexed, and 5000 events were acquired on a Guava® easyCyte™ flow cytometer and analyzed with Incyte Software.
Gated population of lymphocytes positive cells were further analyzed for CD19 and CD20. Cells positive for CD19 and/or CD20 were calculated, and data were expressed as the percentage positive cells in the population. The loss of positive population from control with LPS induction was calculated and expressed as % inhibition with respect to control.

Molecule: CC(C)Oc1ccc(-c2nn([C@@H](C)c3oc4ccc(F)cc4c(=O)c3-c3cccc(F)c3)c3ncnc(N)c23)cc1F [S-isomer, (S)-2-(1-(4-amino-3-(3-fluoro-4-isopropoxyphenyl)-1H-pyrazolo[3,4-d]pyrimidin-1-yl)ethyl)-6-fluoro-3-(3-fluorophenyl)-4H-chromen-4-one]
- Caspase 3 Activity (Raji Cells; S-isomer 200 nM): 0.36
- Caspase 3 Activity (Raji Cells; S-isomer 1000 nM): 0.56
- Caspase 3 Activity (Raji Cells; S-isomer 5000 nM): 0.80
- Caspase 3 Activity (LY1 Cells; S-isomer 200 nM): 0.06
- Caspase 3 Activity (LY1 Cells; S-isomer 1000 nM): 0.17
- Caspase 3 Activity (LY1 Cells; S-isomer 5000 nM): 0.61
- reduction in CD20-positive HWB B-cells (CD20-positive cells; 1 μM): not observed
- Caspase-3 activity increase ([1]; 1 μM, cell lines): 40-75%
- reduction in CD19-positive HWB B-cells (CD19-positive cells; 1 μM): not observed
- inhibition at 1 µM (CD19+ B-cell; Homo sapiens, B-cell, 1 μM): ~60%

B1: UBX: monoclonal antibody that targets a specific and unique epitope on CD20, bioengineered for enhanced clinical activity and potency (antibody, V domains shown)
VH: QAYLQQSGAELVRPGASVKMSCKASGYTFTSYNMHWVKQTPRQGLEWIGGIYPGNGDTSYNQKFKGKATLTVGKSSSTAYMQLSSLTSEDSAVYFCARYDYNYAMDYWGQGTSVTVSS
VL: QIVLSQSPAILSASPGEKVTMTCRASSSVSYMHWYQQKPGSSPKPWIYATSNLASGVPARFSGSGSGTSYSFTISRVEAEDAATYYCQQWTFNPPTFGGGTRLEIK
modifications: antibody fragment
- Caspase 3 Activity (Raji Cells; UBX 10 ng/ml): 0.18
- Caspase 3 Activity (Raji Cells; UBX 100 ng/ml): 0.31
- Caspase 3 Activity (Raji Cells; UBX 1000 ng/ml): 0.51
- Caspase 3 Activity (Raji Cells; UBX 10,000 ng/ml): 0.60
- caspase-3 activity (Raji Cells; Raji): induced
- caspase-3 activity (LY1 Cells; LY1, 24 hrs): induced
- Caspase 3 Activity (LY1 Cells; UBX 10 ng/ml): 0.23
- Caspase 3 Activity (LY1 Cells; UBX 100 ng/ml): 0.32
- Caspase 3 Activity (LY1 Cells; UBX 1000 ng/ml): 0.53
- Caspase 3 Activity (LY1 Cells; UBX 10,000 ng/ml): 0.59
- reduction in CD20+ B-cells (CD20-positive cells; human whole blood): dose-dependent reduction
- ability to induce Caspase-3 activity ([1]; cell lines tested): limited ability
- depletion of B-cells (CD19-positive cells; human whole blood, doses from 1 to 100,000 ng/ml): 20-30%
- effect on CD19+ cells (LPS-induced proliferation) (CD19+ B-cell): minimal effect
